Measurements taken from US20230056445A1 (published 2023).
Like-named read-outs stand apart in the source and are kept apart here.

What was measured:
[1] = biological target: T1, human IL-7Rα (IL-7R) on human PBMCs / monocytes (human, UniProt P16871 21-459); assay: cell-based or functional assay
T1 chain: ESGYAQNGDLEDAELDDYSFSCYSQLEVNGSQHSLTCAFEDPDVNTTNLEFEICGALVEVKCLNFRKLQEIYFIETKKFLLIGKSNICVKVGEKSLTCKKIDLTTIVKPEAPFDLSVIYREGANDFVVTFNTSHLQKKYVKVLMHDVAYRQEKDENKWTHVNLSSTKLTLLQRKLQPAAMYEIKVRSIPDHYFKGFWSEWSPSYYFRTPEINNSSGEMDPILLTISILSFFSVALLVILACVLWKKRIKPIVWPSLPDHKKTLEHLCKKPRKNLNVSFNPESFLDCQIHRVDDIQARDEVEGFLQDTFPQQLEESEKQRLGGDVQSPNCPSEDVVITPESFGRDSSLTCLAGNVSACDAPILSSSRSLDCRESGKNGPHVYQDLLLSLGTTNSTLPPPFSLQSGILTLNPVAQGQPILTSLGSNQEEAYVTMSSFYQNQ

[2] = biological target: T1, human IL-7Rα (IL-7R) on human PBMCs / …; assay: cell-based or functional assay

B1: V7R-2E9 (VHH, not shown: small tags and cut ends)
VHH: EVQLVESGGGLVQAGGSLRLSCESSISTFSSDAMGWFRQAPGKEREFLAAIGWSGAVTHYSDSVQGRFTISRDNAKNTVYLQMNSLKSEDTGRYYCAEDYDTDVWQYWGQGTQVTVSS
B1 was tested, and the “IL-7 induced pSTAT5 in hPBMCs EC50” value [1] was 2.86 nM and the “IL-7 induced pSTAT5 in hPBMCs EC50” value [2] was 2.86 nM.
